Data published in patent US20160319321.
Substitutions are numbered along the chain they refer to. Names may count otherwise.

What was measured:
[1] = target: T1, Lys(Dnp)-IYGDRHAEGT-Lys(Abz)amide
T1 chain: KIYGDRHAEGTK

[2] = target: T2, Lys(Dnp)-DFGDR-HAEGT-Lys(Abz)amide
T2 chain: KDFGDRHAEGTK

[3] = target: T3, Lys(Dnp)-TEGDR-HAEGT-Lys(Abz)amide
T3 chain: KTEGDRHAEGTK

[4] = target: T4, Lys(Dnp)-DSGDR-HGTFT-Lys(Abz)amide
T4 chain: KDSGDRHGTFTK

[5] = target: T5, DVKPGEPLYDEGDR-[Arg34]GLP-1(9-37)
T5 chain: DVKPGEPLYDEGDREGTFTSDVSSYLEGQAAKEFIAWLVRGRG

[6] = target: T6, Lys(Dnp)-EEGDR-HGEGT-Lys(Abz)amide
T6 chain: KEEGDRHGEGTK

[7] = target: T7, Lys(Dnp)-SGGDRHAEGT-Lys(Abz)amide
T7 chain: KSGGDRHAEGTK

[8] = target: T8, Lys(Dnp)-EGGDR-HGEGT-Lys(Abz)amide
T8 chain: KEGGDRHGEGTK

[9] = target: T9, DVKPGQPLEDDDDK-[Arg34]GLP-1(9-37)
T9 chain: T5 chain with E6Q, Y9E, E11D, G12D, R14K

[10] = target: T10, Lys(Dnp)-FDEGDR-HAEGT-Lys(Abz)amide
T10 chain: KFDEGDRHAEGTK

[11] = target: T11, Lys(Dnp)-EFGDR-HAEGT-Lys(Abz)amide
T11 chain: KEFGDRHAEGTK

[12] = target: T12, Lys(Dnp)-EYGDR-HAEGT-Lys(Abz)amide
T12 chain: KEYGDRHAEGTK

[13] = target: T13, Lys(Dnp)-DSGDR-QGTFT-Lys(Abz)amide
T13 chain: KDSGDRQGTFTK

[14] = target: T14, Lys(Dnp)-ELGDR-HGEGT-Lys(Abz)amide
T14 chain: KELGDRHGEGTK

[15] = target: T15, Lys(Dnp)-DDGDR-QGTFT-Lys(Abz)amide
T15 chain: KDDGDRQGTFTK

[16] = target: T16, Lys(Dnp)-QEGDR-HGEGT-Lys(Abz)amide
T16 chain: KQEGDRHGEGTK

[17] = target: T17, Lys(Dnp)-DLGDR-QGTFT-Lys(Abz)amide
T17 chain: KDLGDRQGTFTK

[18] = target: T18, Lys(Dnp)-LEGDR-HAEGT-Lys(Abz)amide
T18 chain: KLEGDRHAEGTK

[19] = target: T19, Lys(Dnp)-ELGDR-HAEGT-Lys(Abz)amide
T19 chain: KELGDRHAEGTK

[20] = target: T20, Lys(Dnp)-YEGDR-HAEGT-Lys(Abz)amide
T20 chain: KYEGDRHAEGTK

[21] = target: T21, Lys(Dnp)-RDEGDR-HAEGT-Lys(Abz)amide
T21 chain: KRDEGDRHAEGTK

[22] = target: T22, Lys(Dnp)-DDGDR-HSQGT-Lys(Abz)amide
T22 chain: KDDGDRHSQGTK

[23] = target: T23, Lys(Dnp)-DYGDR-HGEGT-Lys(Abz)amide
T23 chain: KDYGDRHGEGTK

[24] = target: T24, Lys(Dnp)-DQGDR-EGTFT-Lys(Abz)amide
T24 chain: KDQGDREGTFTK

[25] = target: T25, Lys(Dnp)-EDGDR-HAEGT-Lys(Abz)amide
T25 chain: KEDGDRHAEGTK

[26] = target: T26, Lys(Dnp)-DTGDR-HAEGT-Lys(Abz)amide
T26 chain: KDTGDRHAEGTK

[27] = target: T27, Lys(Dnp)-PEGDR-HAEGT-Lys(Abz)amide
T27 chain: KPEGDRHAEGTK

[28] = target: T28, Lys(Dnp)-DDEGDR-HAEGT-Lys(Abz)amide
T28 chain: KDDEGDRHAEGTK

[29] = target: T29, Lys(Dnp)-DDGDR-HGEGT-Lys(Abz)amide
T29 chain: KDDGDRHGEGTK

[30] = target: T30, Lys(Dnp)-EYGDR-HGEGT-Lys(Abz)amide
T30 chain: KEYGDRHGEGTK

[31] = target: T31, Lys(Dnp)-EHGDR-HAEGT-Lys(Abz)amide
T31 chain: KEHGDRHAEGTK

[32] = target: T32, Lys(Dnp)-DSGDR-HSQGT-Lys(Abz)amide
T32 chain: KDSGDRHSQGTK

[33] = target: T33, Lys(Dnp)-DHGDR-HGEGT-Lys(Abz)amide
T33 chain: KDHGDRHGEGTK

[34] = target: T34, Lys(Dnp)-IMGDRHAEGT-Lys(Abz)amide
T34 chain: XIMGDRHAEGTX

[35] = target: T35, Lys(Dnp)-PDEGDR-HAEGT-Lys(Abz)amide
T35 chain: KPDEGDRHAEGTK

[36] = target: T36, Lys(Dnp)-DFGDR-HGEGT-Lys(Abz)amide
T36 chain: KDFGDRHGEGTK

[37] = target: T37, DVKPEQPLYDDDDK-[Arg34]GLP-1(9-37)
T37 chain: T5 chain with G5E, E6Q, E11D, G12D, R14K

[38] = target: T38, Lys(Dnp)-NEDGDR-HAEGT-Lys(Abz)amide (not fully specified)
T38 chain: KNEDGDRHAEGTK

[39] = target: T39, Lys(Dnp)-DEGDR-EGTFT-Lys(Abz)amide
T39 chain: KDEGDREGTFTK

[40] = target: T40, Lys(Dnp)-EAGDR-EGTFT-Lys(Abz)amide
T40 chain: KEAGDREGTFTK

[41] = target: T41, Lys(Dnp)-DAGDR-HAEGT-Lys(Abz)amide
T41 chain: KDAGDRHAEGTK

[42] = target: T42, Lys(Dnp)-EQGDR-HGEGT-Lys(Abz)amide
T42 chain: KEQGDRHGEGTK

B1: bovine Enterokinase light chain variant (C112A, L134K, I135K) (protein)
chain: IVGGSDSREGAWPWVVALYFDDQQVCGASLVSRDWLVSAAHCVYGRNMEPSKWKAVLGLHMASNLTSPQIETRLIDQIVINPHYNKRRKNNDIAMMHLEMKVNYTDYIQPIALPEENQVFPPGRICSIAGWGAKKYQGSTADVLQEADVPLLSNEKCQQQMPEYNITENMVCAGYEAGGVDSCQGDSGGPLMCQENNRWLLAGVTSFGYQCALPNRPGVYARVPRFTEWIQSFLH
Activity (%) [1]: 117%
Activity (%) [2]: 550%
Activity (%) [3]: 393%
Activity (%) [4]: 172%
Activity (%) [5]: 895%
Activity (%) [6]: 641%
Activity (%) [7]: 243%
Activity (%) [8]: 279%
Activity (%) [9]: 100%
Activity (%) [10]: 200%
Activity (%) [11]: 486%
Activity (%) [12]: 539%
Activity (%) [13]: 125%
Activity (%) [14]: 502%
Activity (%) [15]: 338%
Activity (%) [16]: 275%
Activity (%) [17]: 222%
Activity (%) [18]: 398%
Activity (%) [19]: 659%
Activity (%) [20]: 377%
Activity (%) [21]: 222%
Activity (%) [22]: 310%
Activity (%) [23]: 469%
Activity (%) [24]: 412%
Activity (%) [25]: 632%
Activity (%) [26]: 434%
Activity (%) [27]: 441%
Activity (%) [28]: 113%
Activity (%) [29]: 439%
Activity (%) [30]: 338%
Activity (%) [31]: 549%
Activity (%) [32]: 200%
Activity (%) [33]: 526%
Activity (%) [34]: 125%
Activity (%) [35]: 194%
Activity (%) [36]: 253%
Activity (%) [37]: 167%
Activity (%) [38]: 114%
Activity (%) [39]: 890%
Activity (%) [40]: 355%
Activity (%) [41]: 496%
Activity (%) [42]: 432%
